The results in this text go back to the PETadex activity labels.

In general, Km refers to the concentration of substrate that gives half-maximal velocity. For orientation: kcat means the maximal rate divided by the concentration of active sites. For orientation: kcat/Km means the turnover number divided by the Michaelis constant.

To fix the notation:
B1: unnamed (protein)
chain: MRKLYLFLFLTLISPISISIFHAQCTGATVESLTNPGPYTVATLSEADGVRNGPKYAGSTIYYPTNATPPYASIAIVPGFTAAPSSVQEWGPFYASHGIVAIIIGTNSLYDQPEARALALLDALETIKQENGRATSPLIGKLDVTKLAVSGWSMGGGGAQRAAVLDNTISAVVALCPYLTSPQLNHTVPVLIFSGQSDPTAPPSQHANVHYNTTPGTTNKLLFEVKNGNHSVANSPTGGGGAVGKLALSWLKIYLEKNDCYCSVLATAIVNSTTVSSKISQSYQCNNALGVVDSKTRFNLYPNPTKDFVQVNVREMASYQLSSSTGQIVLKGIVTSSKNQIDLSKLPAGVYYLQINGETIKVIKKQ
B2: unnamed (protein)
chain: MLAVWDDTLAHPVRGRDRELATLTGLLDNTSGRRGTGMVVVGAPGTGKTTLLNALVEHAEGFQVLWAEGSAAESDVRFAGVEQLLRPLESLVSLLPDDRGRALRPVWGLPADDEGQVGSLAVPAAVSALLGLAARRQPVLCCVDSAHLLDSASLSALAFAARRAHHAGVVFVFAVDCTADTEVDTETSVWGELPRLRLGRLDDEAAHALLRDRLGASLPHDLADSLLDVGHGNPLALVELAESLTPEHLCGRAAPPSSPPPEGRLCRTLGHRLSALSEGAREVVALAGISEGLDEQLTCRVLPHHRSTLAEAVRSGLVVLDGDTVRTAADTVPSALLAALTPQDIVQAHHRMAEAAEAVGDRDRAVWHRAAIAMAPDPALVADLDDIAERARAAAAHATAAAASERAAALTSDTKERARRLVAAATDHWASGRPQRARTALRLAAPLSDSVLGARVSRLAGEIELRRGDPSVAATKLISTARQLASTHRTLAASALMLAGEASFVAGDNARYCLTAKDAALLCGPEEWPATRVVREHFTAMSATFRGEHSAAAAPLRSLVELGETTPDPTAKTLASQAAFTLGDAERSRDLALQAVVCARARGDESGVPWALVYAALSALLSGQLSAASTTALEGLQVARSLGQSNSAVDHVTVLAMLAALQGDEETALQRLQAANTELAERGLGRPSALATWAAACVDLAHDRPAEAFDRFRRMTVGRSRHCVPLRVMAVPHFVEAAVRCGEKEVARRSLVTFEHWANTTGGTARVALAHRCHALLAEQDGEAQERFTEAVRLHREADAPYDLAVTQLLYASHLRRSRRPKQARELLREAVQLFDDLGATHWVERASQELRACGHPGRGKPHLSRGLSPQQERIAQLVADGATNKEIATQLFISHRTVDHHLRNIFAKLDVRSRVQLAALFR
B3: unnamed (protein)
chain: MKKIYAVALFFLATSFAPNIIFAQCGDVTIESLTNPGPYEVATLTEADGLRNGPDYQGATVYYPTNATPPFASIAIVPGFTALPSSVEEWGPFYASHGIVTIIIGTNSLFDFPEERAVALIDALETMRQENTRSSSPLENQLDVDKFAVSGWSMGGGGAQRAAVLDNTIKGVVALCPWLPNASLNHDSPVLIFSGENDPTAPPAQHADLHYAATPNTTNKLLFEIENGNHSVANTPNGGNGAVGKIALSWLKLYVDENDCYCPLLTESLLVDPPAASKVLSSFECELLSVPDNSFAISVYPNPTHDFVNINSTNPVHFEVYSALGQRLLSGELTQSEKQIDFSNFAKGLYYVRLGNETVKIVRN
B4: unnamed (protein)
chain: MANPYERGPNPTDALLEASSGPFSVSEENVSRLSASGFGGGTIYYPRENNTYGAVAISPGYTGTEASIAWLGGRIASHGFVVITIDTITTLDQPDSRAEQLNAALNHMINRASSTVRSRIDSSRLAVMGHSMGGGGTPRLASQRPDLKAAIPLTPWHLNKNRSSVTVPTLIIGADLDTIAPVATHAKPFYNSLPSSISKAYLELDGATHFAPNIPNKIIGKYSVAWLKRFVDNDTRYTQFLCPGPRDGLFGEVEEYCSTCPF
B5: unnamed (protein)
chain: MPPHAARPGPAQNRRGRAMAVITPRRERSSLLSRALRFTAAAATALVTAVSLAAPAHAANPYERGPNPTDALLEARSGPFSVSEERASRFGADGFGGGTIYYPRENNTYGAVAISPGYTGTQASVAWLGERIASHGFVVITIDTNTTLDQPDSRARQLNAALDYMINDASSAVRSRIDSSRLAVMGHSMGGGGTLRLASQRPDLKAAIPLTPWHLNKNWSSVRVPTLIIGADLDTIAPVLTHARPFYNSLPTSISKAYLELDGATHFAPNIPNKIIGKYSVAWLKRFVDNDTRYTQFLCPGPRDGLFGEVEEYRSTCPF
B6: unnamed (protein)
chain: MEMLEEHRCFEGWQQRWRHDSSTLNCPMTFSIFLPPPRDHTPPPVLYWLSGLTCNDENFTTKAGAQRVAAELGIVLVMPDTSPRGEKVANDDGYDLGQGAGFYLNATQPPWATHYRMYDYLRDELPALVQSQFNVSDRCAISGHSMGGHGALIMALKNPGKYTSVSAFAPIVNPCSVPWGIKAFSSYLGEDKNAWLEWDSCALMYASNAQDAIPTLIDQGDNDQFLADQLQPAVLAEAARQKAWPMTLRIQPGYDHSYYFIASFIEDHLRFHAQYLLK

Substrate in the first data set: pNP-C6
Assay: not given
The conditions noted are these: pH 8; 30 °C.
As for B1, the Km amounted to 300 µM, the kcat is 8.9 s⁻¹ and the kcat/Km amounted to 29700 M⁻¹ s⁻¹.

As for B3, the Michaelis constant (Km) came to 1370 µM, the kcat was 19.1 s⁻¹ and the kcat/Km is 13900 M⁻¹ s⁻¹.

Substrate in the next data set: PET
The data set is described as follows: Proxy for plastic degradation [Absorbance (nm)]. The conditions noted are these: pH 8.5.
In the case of B2, the “Proxy for plastic degradation” value was 12.5 mM.

Substrate in another data set: PBSA
Put plainly: Proxy for plastic degradation [kcat/Km (catalytic efficiency)] (mM⁻¹s⁻¹). The conditions noted are these: pH 8.2.
For B2, the “Proxy for plastic degradation” value came to 308.

Substrate in a further data set: not listed separately
Put plainly: Proxy for plastic degradation [HPLC-UV] (µmol). The conditions noted are these: pH 7.
Regarding B4, the “Proxy for plastic degradation” value was determined as 0.6.

Substrate in the next data set: p-NP-C4
Assay: not given
The conditions noted are these: pH 8; 60 °C.
B5: the Km amounted to 673 µM, the kcat amounted to 483 s⁻¹ and the kcat/Km turned out to be 718000 M⁻¹ s⁻¹.

The data set is the same for the next values; noted with them: pH 8; 37 °C.
As for B6, the Km came out at 700 µM, the kcat was determined as 0.36 s⁻¹ and the kcat/Km came to 514 M⁻¹ s⁻¹.
